Experimental data from publication PMC3765947 (Current Biology, 2012).

Target: purified FMNL2 N terminus (FMNL2N, aa 2-379) (human (from the printed UniProt …, UniProt Q96PY5-3 2-379))
Experiment: ITC

Chain of purified FMNL2 N terminus (FMNL2N, aa 2-379) (human (Q96PY5 2-379): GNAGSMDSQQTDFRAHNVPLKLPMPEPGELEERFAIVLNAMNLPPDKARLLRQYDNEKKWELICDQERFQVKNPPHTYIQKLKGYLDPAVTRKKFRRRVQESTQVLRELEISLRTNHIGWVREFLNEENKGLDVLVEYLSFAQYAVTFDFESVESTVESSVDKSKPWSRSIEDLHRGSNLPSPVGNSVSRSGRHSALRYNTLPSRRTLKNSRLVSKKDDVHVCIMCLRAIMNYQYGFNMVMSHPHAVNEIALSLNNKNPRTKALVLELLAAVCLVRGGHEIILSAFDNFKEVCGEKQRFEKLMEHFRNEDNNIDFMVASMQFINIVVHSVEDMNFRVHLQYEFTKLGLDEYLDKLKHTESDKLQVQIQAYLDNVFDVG

Kd: 3.13 ± 0.38 µM
dH: -5.33 ± 0.16 kcal/mol
B1: Cdc42 (nucleotide-loaded, for ITC) (natural protein)
chain: not shown
